Article PMC3567247 (Biochemistry, 2012)
Read-outs that look alike come from different tables or passages of the source.

What was measured:
Test in all cases: SPR
[1] = biological target: T1, Lymphotoxin-α (UniProt P01374 35-205)
T1 sequence (looked up): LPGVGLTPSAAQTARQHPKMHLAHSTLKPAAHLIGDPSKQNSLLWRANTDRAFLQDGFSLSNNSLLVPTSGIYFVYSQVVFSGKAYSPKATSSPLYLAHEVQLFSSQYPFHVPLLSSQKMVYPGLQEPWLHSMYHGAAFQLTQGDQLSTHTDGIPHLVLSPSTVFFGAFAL

[2] = biological target: T1, Lymphotoxin-α; remark: listed apart in the source
[3] = biological target: T1, Lymphotoxin-α; remark: listed apart in the source

B1: Soluble TNFR1 extracellular domain, residues 40-201 (receptor, human, UniProt P19438 40-201, looked up)
chain: RDSVCPQGKYIHPQNNSICCTKCHKGTYLYNDCPGPGQDTDCRECESGSFTASENHLRHCLSCSKCRKEMGQVEISSCTVDRDTVCGCRKNQYRHYWSENLFQCFNCSLCLNGTVHLSCQEKQNTVCTCHAGFFLRENECVSCSNCKKSLECTKLCLPQIEN
With B1 the Kd [1] was 57 nM, the Kd [2] was 50 ± 10 nM and the Kd [3] was 46 nM. The koff [3] was 0.0092 s⁻¹ and the kon [3] was 170000 M⁻¹ s⁻¹.
